Experimental data: US20240254246A1 (PROMETHEUS BIOSCIENCES, published 2024)
Where a chain is given by its changes, count along the chain named. Values belong to the binder of their own block, whether it stands above or below them.

Legend:
[1] = target: T1, human CD30L expressed on cells (human, UniProt P32971 1-234); assay: flow cytometry, HuCD30L cells
T1 construct: also called huCD30L; B16-huCD30L
T1 sequence: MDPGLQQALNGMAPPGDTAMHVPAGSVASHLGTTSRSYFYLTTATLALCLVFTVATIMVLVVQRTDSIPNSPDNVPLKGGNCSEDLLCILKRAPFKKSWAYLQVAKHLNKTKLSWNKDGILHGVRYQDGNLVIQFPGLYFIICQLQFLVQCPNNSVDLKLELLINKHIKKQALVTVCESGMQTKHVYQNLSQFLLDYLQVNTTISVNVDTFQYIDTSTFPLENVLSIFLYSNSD

[2] = target: T2, recombinant human CD30L protein (human, UniProt P32971 63-234); assay: ELISA, HuCD30L
T2 construct: also called rhCD30L; huCD30L (ELISA)
T2 sequence (looked up): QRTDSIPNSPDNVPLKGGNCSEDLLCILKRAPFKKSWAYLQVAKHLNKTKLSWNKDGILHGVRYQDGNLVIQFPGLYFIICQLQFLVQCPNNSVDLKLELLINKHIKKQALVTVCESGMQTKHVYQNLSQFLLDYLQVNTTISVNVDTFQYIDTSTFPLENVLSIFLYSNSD

[3] = target: T3, recombinant human CD30L (human, UniProt P32971 63-234); assay: ELISA, binding to rhCD30L (OD 450 nm)
T3 construct: Purified recombinant protein of ELISA, BLI, Carterra and KinExA; also called rhCD30L; huCD30L
T3 sequence (looked up): T2 sequence (looked up)

[4] = target: T4, human CD30L expressed on B16 cells (human, UniProt P32971 1-234); assay: flow cytometry, binding to B16 cells expressing human CD30L (MFI)
T4 construct: whole, on cells; B16 cell line transfected to express human CD30L; also called B16-huCD30L; B16-rhCD30L
T4 sequence (looked up): T1 sequence

[5] = target: T3, recombinant human CD30L; assay: BLI, CD30 association to CD30L held by captured IgG; competitor rhCD30
Protocol: Briefly, individual anti-human biosensors were loaded with purified IgG (normalized to 10 μg/mL) and a baseline was measured for each biosensor. Biosensors were saturated with biotin and with polyclonal hulgG and a baseline was measured. Loaded biosensors were then allowed to bind CD30L and the association rate was measured for the binding. Biosensors were moved to buffer wells to measure the dissociation rate.

[6] = target: T3, recombinant human CD30L; assay: recombinant blocking ELISA; competitor CD30
[7] = target: T3, recombinant human CD30L; assay: ELISA on recombinant protein
[8] = target: T5, recombinant mouse CD30L (mouse, UniProt P32972 68-239); assay: ELISA on recombinant protein
T5 construct: Purified recombinant protein; also called rmCD30L
T5 sequence (looked up): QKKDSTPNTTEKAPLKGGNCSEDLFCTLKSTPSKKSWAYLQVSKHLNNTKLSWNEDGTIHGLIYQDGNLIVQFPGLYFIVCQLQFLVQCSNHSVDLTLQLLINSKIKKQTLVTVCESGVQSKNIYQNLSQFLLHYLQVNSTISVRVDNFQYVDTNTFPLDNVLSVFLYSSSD

[9] = target: T6, recombinant cynomolgus CD30L (cynomolgus, UniProt A0A7N9CVX7 63-234); assay: ELISA on recombinant protein
T6 construct: Purified recombinant protein; also called rcyCD30L; cyno CD30L
T6 sequence: T2 sequence (looked up) with V13I, K16R, I142V, I165V

[10] = target: T4, human CD30L expressed on B16 cells; assay: flow cytometry on B16 cells expressing hCD30L
[11] = target: T4, human CD30L expressed on B16 cells; assay: flow cytometry, binding to B16-rhCD30L cells
[12] = target: T7, cynomolgus CD30L expressed on HEK293 cells (cynomolgus, UniProt A0A7N9CVX7 1-234); assay: flow cytometry, binding to HEK293-cyCD30L cells
T7 construct: whole, on cells; also called HEK293-cyCD30L; HEK-cyCD30L
T7 sequence: T1 sequence with A19T, M20T, G32E, L41F, V75I, K78R, I204V, I227V

[13] = target: T7, cynomolgus CD30L expressed on HEK293 …; assay: cell-based or functional assay
[14] = target: T4, human CD30L expressed on B16 cells; assay: cell-based or functional assay
[15] = target: T4, human CD30L expressed on B16 cells; assay: flow cytometry, blocking of CD30-Fc on B16-huCD30L cells; competitor CD30-Fc
[16] = target: T3, recombinant human CD30L; assay: ELISA, binding to purified rhCD30L
[17] = target: T6, recombinant cynomolgus CD30L; assay: ELISA, blocking of CD30-Fc on rcyCD30L; competitor CD30-Fc
[18] = target: T7, cynomolgus CD30L expressed on HEK293 …; assay: flow cytometry, blocking of CD30-Fc on HEK293-cyCD30L cells; competitor CD30-Fc
[19] = target: T3, recombinant human CD30L; assay: ELISA, blocking of CD30-Fc on huCD30L; competitor CD30-Fc
[20] = target: T6, recombinant cynomolgus CD30L; assay: ELISA, binding to purified rcyCD30L
[21] = target: T8, CDH13 (human, UniProt P55290 139-693); assay: cell microarray, library and confirmation screens
T8 construct: whole, on cells; also called hit #16
T8 sequence (looked up): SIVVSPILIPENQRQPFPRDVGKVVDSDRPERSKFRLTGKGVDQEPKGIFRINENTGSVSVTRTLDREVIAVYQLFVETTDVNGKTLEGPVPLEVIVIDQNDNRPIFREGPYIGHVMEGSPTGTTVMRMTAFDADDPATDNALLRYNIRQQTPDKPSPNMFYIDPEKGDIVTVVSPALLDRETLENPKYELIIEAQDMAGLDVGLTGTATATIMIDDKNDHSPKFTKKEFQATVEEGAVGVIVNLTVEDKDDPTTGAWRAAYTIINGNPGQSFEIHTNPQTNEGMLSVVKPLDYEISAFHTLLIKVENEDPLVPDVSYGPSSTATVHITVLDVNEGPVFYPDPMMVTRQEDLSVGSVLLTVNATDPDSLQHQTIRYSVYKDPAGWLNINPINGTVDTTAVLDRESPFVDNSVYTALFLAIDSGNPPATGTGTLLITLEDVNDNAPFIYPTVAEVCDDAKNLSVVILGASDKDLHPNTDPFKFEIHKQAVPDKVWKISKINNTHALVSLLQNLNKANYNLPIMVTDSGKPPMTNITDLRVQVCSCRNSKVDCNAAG

- MFI [1]: 9790 MFI
- OD [2]: 0.06 OD
B1: anti-CD30L clone 59 (antibody, V domains shown)
VH: QVQLVESGGGVVQPGRSLRLSCAASGFTFSIYGMHWVRQAPGKGLEWVAVIWYDGSNKYYVDSVKGRFTISRDNSKNSLYLQMNSLRAEDTAVYYCAREGNLFDYWGQGTLVTVSS
VL: DIQMTQSPSTLSASVGDRVTITCRASQSISSWLAWYQQKPGKAPKLLIYKASSLESGVPSRFSGSGSGTEFTLTISSLKPDDFATYYCQQYKSYYTFGQGTKLEIK

- EC50 (read off the curve) [3]: ~100 pM
- EC50 (read off the curve) [4]: ~1000 pM
- rhCD30L:rhCD30 Blocking [5]: 0.0592
- IC50 [6]: 3180 pM
- rhCD30L (+) ELISA [7]: 1.87
- rmCD30L (+) ELISA [8]: 0.046
- rcyCD30L (+) ELISA [9]: 0.724
- hCD30L B16 (+) FLOW [10]: 6.07e+06
B2: anti-CD30L antibody clone 63 (antibody, V domains shown)
VH: EVQLVESGGGLVQPGGSLRLSCAASGFMFSSYSMNWVRQAPGKGLEWVSYISSSSSTIYDADSVKGRFTISRDDAKNSLYLQMNSLRDEDTAVYYCTREAYPGYYYNYMDVWGKGTTVTVSS
VL: DIQMTQSPSSLSASVGDRVTITCRASQSISSRLAWYQQKPGKAPNLLIYKASNLESGVPSRFSGSGSGTEFTLTISSLQPDDFATYYCQQYNSYSRTFGQGTKVEIK
notes: purified recombinant IgG (held by anti-human biosensors); mouse strain #1

- EC50 [11]: 740 pM
- EC50 [12]: 300 pM
- Inhibition of IL-8 release in a dual cell assay (HEK293-cyCD30L cells + K299 cells) IC50 [13]: 310 pM
- Inhibition of IL-8 release in a dual cell assay (B16-huCD30L cells + K299 cells) IC50 [14]: 810 pM
- IC50 [15]: 790 pM
- EC50 [16]: 40 pM
- IC50 [17]: 1280 pM
- IC50 [18]: 340 pM
- IC50 [19]: 1350 pM
- EC50 [20]: 50 pM
B3: anti-CD30L antibody clone 2 (antibody, V domains shown)
VH: EVQLVESGGGLVQPGRSLRLSCAASGFNFDDYAMHWVRQAPGKGLEWVSGISWRSGNIGYAGSVKGRFTISRDNAKNSLYLQMNSLRPEDSALYYCAKDKGIGFNWNYEGFDYWGQGTLVTVSS
VL: DIQMTQSPSSLSASVGDRVTITCRASQGISNHLAWFQQKPGKAPKSLIYAASSLQSGVPSKFSGSGSGTDFTLTISSLQPEDFATYYCQQYVTYPLTFGGGTKVEIK
notes: also called clone 2 parental

- EC50 [11]: 1110 pM
- EC50 [12]: 670 pM
- Inhibition of IL-8 release in a dual cell assay (HEK293-cyCD30L cells + K299 cells) IC50 [13]: 390 pM
- Inhibition of IL-8 release in a dual cell assay (B16-huCD30L cells + K299 cells) IC50 [14]: 1430 pM
- IC50 [15]: 1060 pM
- EC50 [16]: 50 pM
- IC50 [17]: 1580 pM
- IC50 [18]: 510 pM
- IC50 [19]: 2140 pM
- EC50 [20]: 70 pM
B4: anti-CD30L antibody clone 1 (antibody, V domains shown)
VH: QVQLQESGPGLVKPSETLSLTCTVSGGSISGYYWSWIRQPPVKGLEWIGYIFYSGYTKYNPSLKSRVTISVDTSKNQFSLKLSSVTAADTAVYYCARDRWDFDYWGQGALVTVSS
VL: AIQMTQSPSYLSASVGDRVTIACRASQGIRNNLGWYQQKPGKAPKLLIYAESSLQSGVPSRFSGSGSGTDFTLTISSLQPEDFATYYCLQDFNYPYTFGQGTKLEIK
notes: also called clone 1 parental

- binding result [21]: no binding (tested: 5 µg/mL)
B5: anti-CD30L antibody clone 1 with IgG1 constant region SEQ ID NO: 502 (antibody, V domains shown)
VH: B4 VH
VL: B4 VL
notes: copies: 2 + 2

- binding result [21]: no binding (tested: 5 µg/mL)
B6: anti-CD30L antibody clone 1 germlined with IgG1 constant region SEQ ID NO: 502 (antibody, V domains shown)
VH: B4 VH with V42G, A109T
VL: B4 VL with Y10S, A22T
notes: copies: 2 + 2

- EC50 (read off the curve) [3]: ~100 pM
- EC50 (read off the curve) [4]: ~1000 pM
- rhCD30L:rhCD30 Blocking [5]: 0.0633
- IC50 [6]: 3170 pM
- rhCD30L (+) ELISA [7]: 2.04
- rmCD30L (+) ELISA [8]: 0.049
- rcyCD30L (+) ELISA [9]: 0.951
- hCD30L B16 (+) FLOW [10]: 5.67e+06
B7: anti-CD30L antibody clone 64 (antibody, V domains shown)
VH: EVQLVESGGGLVQPGGSLRLSCAASGFTFSNYAMTWVRQAPGKGLEWVSAISGFGGSTYYADSVKGRFTISRDNSKNTLYLQMNSLRAEDTAVYYCAKDHDYYAFDYWGQGTLVTVSS
VL: not shown
notes: as for B2

- EC50 (read off the curve) [3]: ~100 pM
- EC50 (read off the curve) [4]: ~1000 pM
- rhCD30L:rhCD30 Blocking [5]: 0.0522
- IC50 [6]: 3660 pM
- rhCD30L (+) ELISA [7]: 1.97
- rmCD30L (+) ELISA [8]: 0.047
- rcyCD30L (+) ELISA [9]: 1.38
- hCD30L B16 (+) FLOW [10]: 6.91e+06
B8: anti-CD30L antibody clone 65 (antibody, V domains shown)
VH: B7 VH with R19K, F54Y, D62A, Y80F, T115P
VL: not shown
notes: as for B2

- MFI [1]: 362 MFI
- OD [2]: 1.42 OD
B9: anti-CD30L clone 61 (antibody, V domains shown)
VH: QITLKESGPTLVKPTQTLTLTCTFSGFSLSTSGVGVGWIRQPPGKALEWLALIYWNDDKRYSPSLKSRLTITKDTSKNQVVLTMTNMDPVDTATYYCAHRRTTTVTIYYYYMDVWGKGTTVTVSS
VL: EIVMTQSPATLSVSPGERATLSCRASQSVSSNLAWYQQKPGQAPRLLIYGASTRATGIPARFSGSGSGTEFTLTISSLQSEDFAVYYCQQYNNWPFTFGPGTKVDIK

- MFI [1]: 1090 MFI
- OD [2]: 0.23 OD
B10: anti-CD30L clone 60 (antibody, V domains shown)
VH: QVHLVESGGGVVQPGRSLRLSCAASGFAFNIYGMHWVRQAPGKGLEWVAVISYDGSNKVYADSVKGRFSISRDNSKNTLYLQMNSLRAEDTAVYYCAKSGGITMVRGVFDYWGQGTLVTVSS
VL: DIQMTQSPSSLPASVGDRVTITCRASQGIRNDLGWYQQKPGKAPKRLIHAASSLHSGVPSRFSGSGSGTEFTLTISSLQPEDFATYYCLQHNRYPITFGQGTRLEIK
